{"source": "the supplement of paper PMC12042874", "note": "± gives the uncertainty stated by the source.", "data": [{"experiment": "amyloid nucleation score (Sup35N fusion, yeast selection) (log enrichment); library NNK2; higher = more nucleation; inactive = no reads after selection", "how_it_was_run": "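The nucleation score is the log enrichment of output over input reads, calculated with DiMSum and centred on the mode score of non-aggregating sequences. Sequences with under 100 input reads were excluded. Reads came from Illumina sequencing of plasmid inserts from psi-negative yeast expressing Sup35N fused to peptides of 20 random codons, induced 24 hours with 100 μM copper sulfate and grown 7 days at 30°C without adenine and uracil.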", "values": [{"substance": "EEWTVNCC", "amyloid nucleation score": "5.766 ± 0.046"}, {"substance": "SSTVAGAIIE", "amyloid nucleation score": "0.575 ± 0.18"}, {"substance": "VWVRIQMWYDIMSSASQLYR", "amyloid nucleation score": "0.446 ± 0.33"}, {"substance": "FCYCLIKGCMLEGLSNYSCD", "amyloid nucleation score": "-0.613 ± 1.1"}, {"substance": "EIEEYWGV", "amyloid nucleation score": "-0.125 ± 0.63"}, {"substance": "TISLPYHHKVSRAMNSRF", "amyloid nucleation score": "-0.028 ± 0.62"}, {"substance": "ISGYRWNHVSTFVGIYRVHS", "amyloid nucleation score": "0.98 ± 0.53"}, {"substance": "GEHSGTHNFKCFVSIIRLSR", "amyloid nucleation score": "0.305 ± 1"}, {"substance": "FMSICR", "amyloid nucleation score": "1.47 ± 0.4"}, {"substance": "VDMTGCLTGVDVTSLRNIPL", "amyloid nucleation score": "0.931 ± 0.38"}, {"substance": "LMGLQMSLPWSNEIVRVIPD", "amyloid nucleation score": "-0.663 ± 0.49"}, {"substance": "NRNTTFLNYF", "amyloid nucleation score": "1.94 ± 0.25"}, {"substance": "RFEFIVMSLW", "amyloid nucleation score": "3.19 ± 0.06"}, {"substance": "INIIMFNVFINLEHIYYSVG", "amyloid nucleation score": "5.79 ± 0.066"}, {"substance": "DTERRC", "amyloid nucleation score": "-1.06 ± 0.61"}, {"substance": "VWWFPRLPIPKESVIINGLS", "amyloid nucleation score": "inactive"}, {"substance": "ITFKISNGVWYLPKRL", "amyloid nucleation score": "6.629 ± 0.038"}, {"substance": "HCKSDPWLEPTSVWVFIRLV", "amyloid nucleation score": "0.818 ± 0.23"}, {"substance": "HYWIVRLDAWVSQSVRWCNP", "amyloid nucleation score": "10.95 ± 0.079"}, {"substance": "GHGFFLTTMSSGNNTDRNSG", "amyloid nucleation score": "-1.22 ± 1.1"}, {"substance": "TNGLLNYCSRYTDLDNGSYR", "amyloid nucleation score": "inactive"}, {"substance": "IWRNSANCGASDEAVDSLR", "amyloid nucleation score": "0.53 ± 0.56"}, {"substance": "FPCAMYTEWHVAVTVSICYG", "amyloid nucleation score": "-0.36 ± 0.76"}, {"substance": "FFTQGSCDTILRGLAFFTPR", "amyloid nucleation score": "-0.26 ± 1"}, {"substance": "QSGFEVSCLSDMDSCYRSRN", "amyloid nucleation score": "0.509 ± 0.31"}, {"substance": "SGVLVCVWTRS", "amyloid nucleation score": "-1.24 ± 0.49"}, {"substance": "YVCPIHLSDYEVTLECKSHG", "amyloid nucleation score": "2.17 ± 0.18"}, {"substance": "LIVSAALRYNKDLLWIS", "amyloid nucleation score": "-0.004 ± 0.39"}, {"substance": "YGSWSPHEAGVYT", "amyloid nucleation score": "inactive"}, {"substance": "YSCVDAYG", "amyloid nucleation score": "inactive"}, {"substance": "DRYISLCGW", "amyloid nucleation score": "-0.086 ± 0.56"}, {"substance": "SSCLIG", "amyloid nucleation score": "0.28 ± 0.43"}, {"substance": "GGNLGRPEKALSRRCCVDYL", "amyloid nucleation score": "inactive"}, {"substance": "FVGCVNLRLCSSITTAWSSL", "amyloid nucleation score": "8.346 ± 0.046"}, {"substance": "GCHICHRWIKSVYRSNHALM", "amyloid nucleation score": "0.291 ± 0.33"}, {"substance": "WAPFMGVSKSTQTARTGMVM", "amyloid nucleation score": "-0.146 ± 0.61"}, {"substance": "FQHNVAIKRWRRLADSLYSV", "amyloid nucleation score": "0.723 ± 0.57"}, {"substance": "NQWSLRGGYWPVVLVCFAWM", "amyloid nucleation score": "inactive"}, {"substance": "MVLRKLTYILPTRLLGQRFL", "amyloid nucleation score": "inactive"}, {"substance": "IYPDKSFMALFPMVIDFYTQ", "amyloid nucleation score": "-2.19 ± 0.62"}, {"substance": "FMLNYERL", "amyloid nucleation score": "-1.08 ± 0.42"}, {"substance": "GTVNKSMVTSLTVPLIVC", "amyloid nucleation score": "0.442 ± 0.28"}, {"substance": "TTENNCLVREKVVYGWMWSS", "amyloid nucleation score": "0.149 ± 0.25"}, {"substance": "RSSSVVEARGESST", "amyloid nucleation score": "7.106 ± 0.041"}, {"substance": "NTLKVQIV", "amyloid nucleation score": "2.94 ± 0.075"}, {"substance": "DGFSYDPFSMVSIVVRFVVG", "amyloid nucleation score": "0.99 ± 0.32"}, {"substance": "CDFDIHERMCPYCYIIQVGD", "amyloid nucleation score": "-0.081 ± 0.65"}, {"substance": "LWNSIDNS", "amyloid nucleation score": "inactive"}, {"substance": "KCLVSMVLMYAVTMIWDAPD", "amyloid nucleation score": "1.35 ± 0.3"}, {"substance": "IYFMFVVYDSIHQE", "amyloid nucleation score": "1.32 ± 0.2"}, {"substance": "CLKEMVKVCRGWWRANGSGR", "amyloid nucleation score": "0.433 ± 0.46"}, {"substance": "RHFYRSKMAMVYGFHTAFTG", "amyloid nucleation score": "-0.582 ± 0.34"}, {"substance": "TYLRSPLLLNAVSVNT", "amyloid nucleation score": "0.082 ± 0.65"}, {"substance": "VSQVMLSK", "amyloid nucleation score": "0.626 ± 0.24"}, {"substance": "SLSFCVLEVSTCGCMSGYVG", "amyloid nucleation score": "10.24 ± 0.05"}, {"substance": "MIHYRWTHYNTRIGGYRYWE", "amyloid nucleation score": "3.54 ± 0.05"}, {"substance": "SCHWNVTRGRWNTKHNLRPK", "amyloid nucleation score": "1.06 ± 0.4"}, {"substance": "SFPLSADEFNCSI", "amyloid nucleation score": "-0.314 ± 0.55"}, {"substance": "PEGPERFVFATWPRMHMPSY", "amyloid nucleation score": "inactive"}, {"substance": "DWLNSVFFLPFKCGLCVLRA", "amyloid nucleation score": "0.06 ± 0.4"}, {"substance": "ELPGPHSGVTPPACEWSTHP", "amyloid nucleation score": "0.422 ± 0.24"}, {"substance": "MGARSIRDRSSVGK", "amyloid nucleation score": "-0.464 ± 1.1"}, {"substance": "ELCRCITFGLVCTFACYWVC", "amyloid nucleation score": "0.592 ± 0.2"}, {"substance": "LEGMFLPGFFSCVRFLWL", "amyloid nucleation score": "-1.51 ± 0.78"}, {"substance": "FVLSDQK", "amyloid nucleation score": "0.347 ± 0.21"}, {"substance": "VEDDDN", "amyloid nucleation score": "-0.2 ± 0.63"}, {"substance": "QFNYHNLNLTNFKSLCASTD", "amyloid nucleation score": "0.019 ± 0.61"}, {"substance": "GFCQASSWM", "amyloid nucleation score": "-0.109 ± 0.76"}, {"substance": "QVSLMKVGWITMTPLGLHSL", "amyloid nucleation score": "4.03 ± 0.069"}, {"substance": "RVIWSPSRDRSSWFTESEYH", "amyloid nucleation score": "-0.278 ± 0.36"}, {"substance": "NLVFKPFCEPSVVSV", "amyloid nucleation score": "0.099 ± 0.62"}, {"substance": "LGRLIWTRVSYCMSQINRVR", "amyloid nucleation score": "2.23 ± 0.061"}, {"substance": "DGFYG", "amyloid nucleation score": "inactive"}, {"substance": "QLWSAWWHTVKKTGRRWWHR", "amyloid nucleation score": "0.921 ± 0.19"}, {"substance": "GLLGWMGAYGANPCYPTTLF", "amyloid nucleation score": "0.515 ± 0.8"}, {"substance": "AMRWFGKYSRFWNGYIRNWI", "amyloid nucleation score": "-0.193 ± 0.76"}, {"substance": "WTTLGGPVGREENGRRQAEG", "amyloid nucleation score": "1.17 ± 0.23"}, {"substance": "EMGVGSYSGRCATSGGSNLQ", "amyloid nucleation score": "0.929 ± 0.27"}, {"substance": "DSEPVYYTVNFNQLLSRLYY", "amyloid nucleation score": "1.52 ± 0.32"}, {"substance": "VMDLDAGTCWCISISGLTVR", "amyloid nucleation score": "0.533 ± 0.35"}, {"substance": "CMCENTYNRRIKVRYEWLKW", "amyloid nucleation score": "-0.619 ± 0.21"}, {"substance": "PIWWLL", "amyloid nucleation score": "-0.822 ± 0.79"}, {"substance": "MGVSNIDIVSRILNPGAAAS", "amyloid nucleation score": "1.36 ± 0.41"}, {"substance": "ALYLL", "amyloid nucleation score": "0.154 ± 0.23"}, {"substance": "TCFMRCRTCNLRVIHSDVF", "amyloid nucleation score": "5.546 ± 0.048"}, {"substance": "LATKMSRGYSIRDWS", "amyloid nucleation score": "0.052 ± 0.24"}]}]}
